Data from US20090280138A1 (OXFORD BIOMEDICA UK, published 2009).

Tests used:
[1] = target: T1, MHC class I allele A*0101 (bound via biotin to streptavidin-coated plate); assay: iTopia peptide binding assay
T1 construct: iTopia MHC class I monomer on the plate; placeholder peptide and b2M removed, then reconstituted with test peptide and fresh b2M; also called A1; HLA A1
Experimental: (§1) The 9 mers were tested for Peptide Binding, Off Rate and Affinity using iTopia Epitope Discovery System in accordance with the manufacturer's instructions. Briefly, 96 well microtitre plates coated with MHC molecules representing different MHC alleles are used to identify candidate peptides. […] Determinations are performed in duplicate using an ELISA plate reader and included allele specific positive controls.
(§2) i) Peptide Binding—This assay measures the ability of individual peptides to bind to the MHC molecules under standardized optimal binding conditions. The assay is performed for all the test peptides across the selected MHC alleles. The test peptides identified as “binders” are characterized further in terms of affinity and dissociation experiments.

[2] = target: T2, MHC class I allele A*0201 (bound via biotin to streptavidin-coated plate); assay: iTopia peptide binding assay
T2 construct: iTopia MHC class I monomer on the plate; placeholder peptide and b2M removed, then reconstituted with test peptide and fresh b2M; also called A2; HLA A2
Experimental: as §1, §2

[3] = target: T3, MHC class I allele A*0301 (bound via biotin to streptavidin-coated plate); assay: iTopia peptide binding assay
T3 construct: iTopia MHC class I monomer on the plate; placeholder peptide and b2M removed, then reconstituted with test peptide and fresh b2M; also called A3; HLA A3
Experimental: as §1, §2

[4] = target: T4, MHC class I allele B*0702 (bound via biotin to streptavidin-coated plate); assay: iTopia peptide binding assay
T4 construct: iTopia MHC class I monomer on the plate; placeholder peptide and b2M removed, then reconstituted with test peptide and fresh b2M; also called B7; HLA B7
Experimental: as §1, §2

[5] = target: T5, MHC class I allele A*0101 monomer (human, biotinylated, bound to streptavidin-coated plate); assay: iTopia, multiparametric iScore
T5 construct: placeholder peptide and b2M removed, then reconstituted with test peptide and fresh b2M; also called A1; HLA-A1
Experimental: as §1
(§3) Finally, multiparametric analysis is performed on the results from these assays and an iScore is generated. The iScore represents a measure of the overall quality of peptide-MHC binding, enabling candidate peptides to be ranked in order of binding quality and allowing rational prioritisation of peptides for functional cellular follow-up studies.

[6] = target: T6, MHC class I allele A*0201 monomer (human, biotinylated, bound to streptavidin-coated plate); assay: iTopia, multiparametric iScore
T6 construct: also called A2; HLA-A2
Experimental: as §1, §3

[7] = target: T7, MHC class I allele A*0301 monomer (human, biotinylated, bound to streptavidin-coated plate); assay: iTopia, multiparametric iScore
T7 construct: also called A3; HLA-A3
Experimental: as §1, §3

[8] = target: T8, MHC class I allele B*0702 monomer (human, biotinylated, bound to streptavidin-coated plate); assay: iTopia, multiparametric iScore
T8 construct: also called B7; HLA-B7
Experimental: as §1, §3

QPPLPDQCP (also called Peptide No 28) [5T4 9 mer peptide 28 QPPLPDQCP]
% of positive control peptide binding [1]: 6% | % of positive control peptide binding [2]: 5% | % of positive control peptide binding [3]: 1% | % of positive control peptide binding [4]: 3%

KGIKKWMHN [5T4 9-mer peptide 190]
iScore [5]: 0 | iScore [6]: 0 | iScore [7]: 0 | iScore [8]: 0

KWMHNIRDA [5T4 9-mer peptide 192]
iScore [5]: 0 | iScore [6]: 0.45 | iScore [7]: 0 | iScore [8]: 0

EGYHYRYEI [5T4 9-mer peptide 199]
iScore [5]: 0 | iScore [6]: 0 | iScore [7]: 0 | iScore [8]: 0

ECSEAARTV (also called Peptide No 34) [5T4 9 mer peptide 34 ECSEAARTV]
% of positive control peptide binding [1]: 2% | % of positive control peptide binding [2]: 4% | % of positive control peptide binding [3]: 0% | % of positive control peptide binding [4]: 0%

RTVKCVNRN (also called Peptide No 37) [5T4 9 mer peptide 37 RTVKCVNRN]
% of positive control peptide binding [1]: 7% | % of positive control peptide binding [2]: 12% | % of positive control peptide binding [3]: 12% | % of positive control peptide binding [4]: 3%

LCECSEAAR (also called Peptide No 33) [5T4 9 mer peptide 33 LCECSEAAR]
% of positive control peptide binding [1]: 3% | % of positive control peptide binding [2]: 6% | % of positive control peptide binding [3]: 0% | % of positive control peptide binding [4]: 0%

RDACRDHME [5T4 9-mer peptide 195]
iScore [5]: 0 | iScore [6]: 0.08 | iScore [7]: 0 | iScore [8]: 0

MHNIRDACR [5T4 9-mer peptide 193]
iScore [5]: 0 | iScore [6]: 0.093 | iScore [7]: 0 | iScore [8]: 0

QCPALCECS (also called Peptide No 31) [5T4 9 mer peptide 31 QCPALCECS]
% of positive control peptide binding [1]: 3% | % of positive control peptide binding [2]: 2% | % of positive control peptide binding [3]: 0% | % of positive control peptide binding [4]: 0%

YEINADPRL [5T4 9-mer peptide 202]
iScore [5]: 0 | iScore [6]: 0.077 | iScore [7]: 0 | iScore [8]: 0

SEAARTVKC (also called Peptide No 35) [5T4 9 mer peptide 35 SEAARTVKC]
% of positive control peptide binding [1]: 5% | % of positive control peptide binding [2]: 1% | % of positive control peptide binding [3]: 0% | % of positive control peptide binding [4]: 0%

PALCECSEA (also called Peptide No 32) [5T4 9 mer peptide 32 PALCECSEA]
% of positive control peptide binding [1]: 4% | % of positive control peptide binding [2]: 19% | % of positive control peptide binding [3]: 0% | % of positive control peptide binding [4]: 0%

MPGGCSRGP (also called Peptide No 1) [5T4 9 mer peptide 1 MPGGCSRGP]
% of positive control peptide binding [1]: 0% | % of positive control peptide binding [2]: 9% | % of positive control peptide binding [3]: 0% | % of positive control peptide binding [4]: 3%

ASAVSAQPP (also called Peptide No 25) [5T4 9 mer peptide 25 ASAVSAQPP]
% of positive control peptide binding [1]: 2% | % of positive control peptide binding [2]: 5% | % of positive control peptide binding [3]: 0% | % of positive control peptide binding [4]: 0%

NRKGIKKWM [5T4 9-mer peptide 189]
iScore [5]: 0 | iScore [6]: 0.138 | iScore [7]: 0 | iScore [8]: 0

IFLLVLYLN [5T4 9-mer peptide 185]
iScore [5]: 0 | iScore [6]: 0 | iScore [7]: 0 | iScore [8]: 0

RDHMEGYHY [5T4 9-mer peptide 197]
iScore [5]: 0 | iScore [6]: 0 | iScore [7]: 0 | iScore [8]: 0

RLRLARLAL (also called Peptide No 8) [5T4 9 mer peptide 8 RLRLARLAL]
% of positive control peptide binding [1]: 3% | % of positive control peptide binding [3]: 43% | % of positive control peptide binding [4]: 46%

YHYRYEINA [5T4 9-mer peptide 200]
iScore [5]: 0 | iScore [6]: 0 | iScore [7]: 0 | iScore [8]: 0

YRYEINADP [5T4 9-mer peptide 201]
iScore [5]: 0 | iScore [6]: 0 | iScore [7]: 0 | iScore [8]: 0

YLNRKGIKK [5T4 9-mer peptide 188]
iScore [5]: 0 | iScore [6]: 0.118 | iScore [7]: 0.065 | iScore [8]: 0.089

INADPRLTN [5T4 9-mer peptide 203]
iScore [5]: 0 | iScore [6]: 0 | iScore [7]: 0 | iScore [8]: 0

ADPRLTNLS [5T4 9-mer peptide 204]
iScore [5]: 0 | iScore [6]: 0 | iScore [7]: 0 | iScore [8]: 0.094

SAQPPLPDQ (also called Peptide No 27) [5T4 9 mer peptide 27 SAQPPLPDQ]
% of positive control peptide binding [1]: 2% | % of positive control peptide binding [2]: 13% | % of positive control peptide binding [3]: 0% | % of positive control peptide binding [4]: 3%

APFLASAVS (also called Peptide No 23) [5T4 9 mer peptide 23 APFLASAVS]
% of positive control peptide binding [1]: 1% | % of positive control peptide binding [2]: 15% | % of positive control peptide binding [3]: 0% | % of positive control peptide binding [4]: 37%

ACRDHMEGY [5T4 9-mer peptide 196]
iScore [5]: 0 | iScore [6]: 0 | iScore [7]: 0 | iScore [8]: 0

LTNLSSNSD [5T4 9-mer peptide 206]
iScore [5]: 0 | iScore [6]: 0.027 | iScore [7]: 0 | iScore [8]: 0

NIRDACRDH [5T4 9-mer peptide 194]
iScore [5]: 0 | iScore [6]: 0 | iScore [7]: 0 | iScore [8]: 0

PRLTNLSSN [5T4 9-mer peptide 205]
iScore [5]: 0 | iScore [6]: 0 | iScore [7]: 0 | iScore [8]: 0

IKKWMHNIR [5T4 9-mer peptide 191]
iScore [5]: 0 | iScore [6]: 0.181 | iScore [7]: 0 | iScore [8]: 0

PDQCPALCE (also called Peptide No 30) [5T4 9 mer peptide 30 PDQCPALCE]
% of positive control peptide binding [1]: 5% | % of positive control peptide binding [2]: 3% | % of positive control peptide binding [3]: 0% | % of positive control peptide binding [4]: 1%
